Patent US20250179208A1 (ZONHON BIOPHARMA INSTITUTE, published 2025)
Positions count from the first letter of the chain named.

T1: CD3 protein
T1 chain 1: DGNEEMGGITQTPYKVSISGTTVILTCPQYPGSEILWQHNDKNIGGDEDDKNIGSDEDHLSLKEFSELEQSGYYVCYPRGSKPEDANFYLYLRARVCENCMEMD
T1 chain 2: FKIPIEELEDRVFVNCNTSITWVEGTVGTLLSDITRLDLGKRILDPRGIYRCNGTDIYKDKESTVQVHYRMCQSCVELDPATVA

B1: 19G293 (anti-CD26-CD3 humanized bispecific antibody derived from No. 62 mouse antibody) (bispecific antibody)
chain: QVQLVQSGAELVKPGASVKLSCKASGFNIKDTYIYWVRQAPGQGLEWIGRIEPMNGNTKYDPKFQGRVTMTANTSINTAYLELSSLRSEDTAVYYCSRGGWLLLYVMDYWGQGTLVTVSSGGGGSGGGGSGGGGSDIVMTQSPLSLSVTPGEPASISCRSDKSLLHSNGNTYLYWFLQKPGQSPQVLIYRMSNLASGVPDRFSGSGSGTDFTLKISRVEAEDVGVYYCFQQLEYPYTFGQGTKLEIKGGGGSDVQLVQSGAEVKKPGASVKVSCKASGYTFTRYTMHWVRQAPGQGLEWIGYINPSRGYTNYADSVKGRFTITTDKSTSTAYMELSSLRSEDTATYYCARYYDDHYCLDYWGQGTTVTVSSGGGGSGGGGSGGGGSDIVLTQSPATLSLSPGERATLSCRASQSVSYMNWYQQKPGKAPKRWIYDTSKVASGVPARFSGSGSGTDYSLTINSLEAEDAATYYCQQWSSNPLTFGGGTKVEIK
B2: 17G29 (anti-CD26-CD3 humanized bispecific antibody derived from YS110) (bispecific antibody)
chain: EVQLVESGAGVKQPGGTLRLTCTASGFSLTTYGVHWVRQAPGKGLEWVGVIWGDGRTDYDAAFMSRVTISKDTSKSTVYLQMNSLRAEDTAVYYCMRNRHDWFDYWGQGTTVTVSSGGGGSGGGGSGGGGSDILLTQSPSSLSATPGERATITCRASQGIRNNLNWYQQKPGQAPRLLIYYSSNLQSGVPSRFSGSGSGTDFTLTISRLQPEDVAAYYCQQSIKLPFTFGSGTKVEIKGGGGSDVQLVQSGAEVKKPGASVKVSCKASGYTFTRYTMHWVRQAPGQGLEWIGYINPSRGYTNYADSVKGRFTITTDKSTSTAYMELSSLRSEDTATYYCARYYDDHYCLDYWGQGTTVTVSSGGGGSGGGGSGGGGSDIVLTQSPATLSLSPGERATLSCRASQSVSYMNWYQQKPGKAPKRWIYDTSKVASGVPARFSGSGSGTDYSLTINSLEAEDAATYYCQQWSSNPLTFGGGTKVEIK
notes: also called positive control
B3: 19G292 (anti-CD26-CD3 humanized bispecific antibody derived from No. 62 mouse antibody) (bispecific antibody)
chain: QVQLLQSGAEVVKPGASVKISCKASGFNIKDTYIYWVKQPTGQGLEWIGRIEPMNGNTKYDPKFQGRFTMTANTSINTAYLQLSSLTSEDTAVYYCSRGGWLLLYVMDYWGQGTTVTVSSGGGGSGGGGSGGGGSDIVMTQSASSLPVTPGESVSISCRSDKSLLHSNGNTYLYWFLQRPGQSPQVLIYRMSNLASGVPDRFSGSGSGTEFTLTISRVEAEDVGVYYCFQQLEYPYTFGPGTKLEIKGGGGSDVQLVQSGAEVKKPGASVKVSCKASGYTFTRYTMHWVRQAPGQGLEWIGYINPSRGYTNYADSVKGRFTITTDKSTSTAYMELSSLRSEDTATYYCARYYDDHYCLDYWGQGTTVTVSSGGGGSGGGGSGGGGSDIVLTQSPATLSLSPGERATLSCRASQSVSYMNWYQQKPGKAPKRWIYDTSKVASGVPARFSGSGSGTDYSLTINSLEAEDAATYYCQQWSSNPLTFGGGTKVEIK
B4: 19G296 (anti-CD26-CD3 humanized bispecific antibody derived from No. 212 mouse antibody) (bispecific antibody)
chain: QVQLQESGPGLVKPSETLSLTCTVSGDSITSGYWHWIRQPPGKGLEWIGYINYSGYTYYNPSLKSRFTISRDTSKNQYYLQLNSVTAEDTAVYYCTSERNWGAFAYWGQGTLVTVSSGGGGSGGGGSGGGGSENVLTQSPATLSASPGERATLSCRASSSVISTYLHWYQQKPGQAPKLWIYSTSNLASGVPARFSGSGSGTDYTLTISSVEPEDFAVYYCQQFSGYPYTFGQGTKLEIKGGGGSDVQLVQSGAEVKKPGASVKVSCKASGYTFTRYTMHWVRQAPGQGLEWIGYINPSRGYTNYADSVKGRFTITTDKSTSTAYMELSSLRSEDTATYYCARYYDDHYCLDYWGQGTTVTVSSGGGGSGGGGSGGGGSDIVLTQSPATLSLSPGERATLSCRASQSVSYMNWYQQKPGKAPKRWIYDTSKVASGVPARFSGSGSGTDYSLTINSLEAEDAATYYCQQWSSNPLTFGGGTKVEIK
B5: 19G297 (anti-CD26-CD3 humanized bispecific antibody derived from No. 212 mouse antibody) (bispecific antibody)
chain: B4 chain with Q1E, E16G, T23A, P40A, I48V, T142S, A151V, L153I, S154T, V218T
B6: 17G61 (anti-CD26-CD3 chimeric bispecific antibody derived from No. 62 mouse antibody) (bispecific antibody)
chain: DIVMTQAAPSVSVTPGESVSISCRSDKSLLHSNGNTYLYWFLQRPGQSPQVLIYRMSNLASGVPDRFSGSGSGTGFTLRVSRVEAEDVGVYYCFQQLEYPYTFGGGTKLEIKGGGGSGGGGSGGGGSEVQLQQSGAELVKPGASVKLSCTASGFNIKDTYIYWVKQRPGQGLEWIGRIEPMNGNTKYDPKFQGKATMTANTSSNTAYLHLSSLASEDTAVYFCSRGGWLLLYVMDYWGQGTSVTVSSGGGGSDVQLVQSGAEVKKPGASVKVSCKASGYTFTRYTMHWVRQAPGQGLEWIGYINPSRGYTNYADSVKGRFTITTDKSTSTAYMELSSLRSEDTATYYCARYYDDHYCLDYWGQGTTVTVSSGGGGSGGGGSGGGGSDIVLTQSPATLSLSPGERATLSCRASQSVSYMNWYQQKPGKAPKRWIYDTSKVASGVPARFSGSGSGTDYSLTINSLEAEDAATYYCQQWSSNPLTFGGGTKVEIK
notes: also called chimeric BiTE
B7: 17G131 (anti-CD26-CD3 chimeric bispecific antibody derived from No. 51 mouse antibody) (bispecific antibody)
chain: DIQMTQSPASLSASVGESVTITCRASENIYSYLTWYQQKQGKSPQLLVYNAKTLTEDVPSRFSGSGSGTQFSLKINSLQPEDFGSYYCQHHYGSPRTFGGGTKLEIKGGGGSGGGGSGGGGSQAQLQQSGAELMKPGASVKISCKATGYTFSNFWIEWVVQRPGHGLEWIGEILPGRGTTNYNEKFRGKATFTADTSSDTAYIQLSSLTSEDSAVYYCARERFYGSKYFDVWGAGTTVTVSSGGGGSDVQLVQSGAEVKKPGASVKVSCKASGYTFTRYTMHWVRQAPGQGLEWIGYINPSRGYTNYADSVKGRFTITTDKSTSTAYMELSSLRSEDTATYYCARYYDDHYCLDYWGQGTTVTVSSGGGGSGGGGSGGGGSDIVLTQSPATLSLSPGERATLSCRASQSVSYMNWYQQKPGKAPKRWIYDTSKVASGVPARFSGSGSGTDYSLTINSLEAEDAATYYCQQWSSNPLTFGGGTKVEIK
notes: also called chimeric BiTE
B8: 18G272 (anti-CD26-CD3 humanized bispecific antibody derived from No. 62 mouse antibody) (bispecific antibody)
chain: DIVMTQSASSLPVTPGEPASISCRSDKSLLHSNGNTYLYWFLQKPGQSPQVLIYRMSNLASGVPDRFSGSGSGTDFTLTISRVEAEDVGVYYCFQQLEYPYTFGQGTKLEIKGGGGSGGGGSGGGGSQVQLVQSGAEVVKPGASVKISCKASGFNIKDTYIYWVRQRTGQGLEWIGRIEPMNGNTKYDPKFQGRLTMTANTSKNTAYLQLSSLTSEDTAVYYCSRGGWLLLYVMDYWGQGTTVTVSSGGGGSDVQLVQSGAEVKKPGASVKVSCKASGYTFTRYTMHWVRQAPGQGLEWIGYINPSRGYTNYADSVKGRFTITTDKSTSTAYMELSSLRSEDTATYYCARYYDDHYCLDYWGQGTTVTVSSGGGGSGGGGSGGGGSDIVLTQSPATLSLSPGERATLSCRASQSVSYMNWYQQKPGKAPKRWIYDTSKVASGVPARFSGSGSGTDYSLTINSLEAEDAATYYCQQWSSNPLTFGGGTKVEIK

biological target: T2, CD26 protein (recombinant human CD26) (human, UniProt P27487 29-766, limits assumed); assay: BLI (Octet), biotinylated CD26 on SA sensor, antibody 31.3-500 nM
T2 construct: Amine-coupled, biotinylated or HRP-labeled according to the assay; also called DPP4; rCD26
Description: CD26 protein was biotinylated with EZ-link NHS-PEG12-Biotin. Biotinylated CD26 protein was immobilized to SA biosensor. Equilibrated in 1×Kinetics solution. The CD26 immobilized to SA biosensor was combined with the antibody solution to be detected. The concentration gradients of the antibody solution were 31.3 nM, 62.5 nM, 125 nM, 250 nM, and 500 nM. The biosensor was dissociated in 1×Kinetics solution. Fortebio Data Analysis 8.0 software was used for data analysis and affinity constant values were calculated.

| Binder | Kd [nM] | kon [M⁻¹ s⁻¹] | koff [s⁻¹] |
| --- | --- | --- | --- |
| B1 | < 0.001 | 54600 | – |
| B2 | 1.18 | 183000 | 0.000216 |
| B3 | < 0.001 | 65800 | – |
| B4 | 14.8 | 94500 | 0.0014 |
| B5 | 4.4 | 91800 | 0.00037 |

Biological target: T1, CD3 protein
Assay: BLI (Octet), biotinylated CD3 on SA sensor, antibody 200-1600 nM
Description: CD3 protein was biotinylated with EZ-link NHS-PEG12-Biotin. Biotinylated CD3 protein was immobilized to SA biosensor. Equilibrated in 1×Kinetics solution. The CD3 immobilized to SA biosensor was combined with the humanized bispecific antibody solution to be detected. The concentration gradient of humanized bispecific antibody was 200 nM, 400 nM, 800 nM, and 1600 nM. The biosensor was dissociated in 1×Kinetics solution. Fortebio Data Analysis 8.0 software was used for data analysis and affinity constant values were calculated.

| Binder | Kd [nM] | koff [s⁻¹] | kon [M⁻¹ s⁻¹] |
| --- | --- | --- | --- |
| B1 | 1.73 | 0.000571 | 331000 |
| B2 | 12.2 | – | – |
| B3 | 0.568 | 0.000107 | 188000 |
| B4 | 9.67 | 0.00225 | 233000 |
| B5 | 10.1 | 0.00367 | 362000 |

Biological target: T1, CD3 protein
Assay: BLI (Octet QKe), CD3 amine-coupled on AR2G sensor, antibody at 181.8 nM
Description: The affinity of chimeric antibodies to antigen protein CD3 was determined by Fortebio Intermolecular Interaction Octet QKe instrument. First, the amino-coupled biosensor AR2G was activated with EDC/s-NHS, and the activated biosensor AR2G was solidified in CD3 protein solution diluted with 10 mM sodium acetate (pH 5.0) solution. The biosensor solidified with CD3 was quenched in 1M ethanolamine (pH8.5) solution. Then equilibrated in 1× kinetic solution. After equilibration, it was bound to bispecific antibody solution. They were dissociated in 1×kinetic solution. Fortebio Data Analysis 8.0 software was used to analyze the data and calculate the affinity constant value (KD).

| Binder | Kd [nM] | koff [s⁻¹] | kon [M⁻¹ s⁻¹] |
| --- | --- | --- | --- |
| B6 | 8.87 | 0.00159 | 179000 |

biological target: T2, CD26 protein (recombinant human CD26); assay: BLI (Octet QKe), CD26 amine-coupled on AR2G sensor, antibody at 181.8 nM
Description: The affinity of the chimeric antibody to the antigen protein CD26 was detected by Fortebio Intermolecular Interaction Octet QKe instrument. First, the amino-coupled biosensor AR2G was activated with EDC/s-NHS, and the activated biosensor AR2G was solidified in CD26 protein solution diluted with 10 mM sodium acetate (pH 5.0) solution. The biosensor solidified with CD26 was quenched in 1M ethanolamine (pH8.5) solution. Then equilibrated in 1× kinetic solution. After equilibration, it was bound to a humanized bispecific antibody solution. It was dissociated in 1× kinetic solution. Fortebio Data Analysis 8.0 software was used to analyze the data and calculate the affinity constant (KD), association rate constant (kon) and dissociation rate constant (kdis). The Response value represents the number of antibody molecules that can bind to the antigen. Kon indicates the binding speed of the antibody to the corresponding receptor. Kdis represents the dissociation speed of antibody from corresponding receptor. NA indicates no valid data.

| Binder | Kd [nM] | Response | koff [s⁻¹] | kon [M⁻¹ s⁻¹] |
| --- | --- | --- | --- | --- |
| B6 | 17.3 | 0.849 | 0.000331 | 19100 |
| B7 | 43.6 | 0.15 | 0.000829 | 19000 |

biological target: CD26 on CD26 positive human tumor cells (human, UniProt P27487 1-766); assay: cell-based or functional assay

| Binder | IC50 of antibody mediated PBMC cytotoxicity against 786-0 cells [ng/mL] | IC50 of antibody mediated PBMC cytotoxicity against NCI-H226 cells [ng/mL] | IC50 of antibody mediated PBMC cytotoxicity against OS-RC-2 cells [ng/mL] | IC50 of antibody mediated PBMC cytotoxicity against PC-3 cells [ng/mL] |
| --- | --- | --- | --- | --- |
| B1 | 0.974 | 0.405 | 2.25 | 0.565 |
| B8 | 2.27 | 0.143 | 0.284 | 0.379 |
| B2 | 1.03 | 0.918 | 0.958 | 1.14 |
| B3 | 0.805 | 1.1 | 1.04 | 0.339 |
